Test results: paper PMC11297037 (Nature Communications, 2024)

Molecular target: the molecule itself
Experiment: cryo-EM structure

B1: human neutral amino acid transporter ASCT2 (natural protein)
chain: MVADPPRDSKGLAAAEPTANGGLALASIEDQGAAAGGYCGSRDQVRRCLRANLLVLLTVVAVVAGVALGLGVSGAGGALALGPERLSAFVFPGELLLRLLRMIILPLVVCSLIGGAASLDPGALGRLGAWALLFFLVTTLLASALGVGLALALQPGAASAAINASVGAAGSAENAPSKEVLDSFLDLARNIFPSNLVSAAFRSYSTTYEERNITGTRVKVPVGQEVEGMNILGLVVFAIVFGVALRKLGPEGELLIRFFNSFNEATMVLVSWIMWYAPVGIMFLVAGKIVEMEDVGLLFARLGKYILCCLLGHAIHGLLVLPLIYFLFTRKNPYRFLWGIVTPLATAFGTSSSSATLPLMMKCVEENNGVAKHISRFILPIGATVNMDGAALFQCVAAVFIAQLSQQSLDFVKIITILVTATASSVGAAGIPAGGVLTLAIILEAVNLPVDHISLILAVDWLVDRSCTVLNVEGDALGAGLLQNYVDRTESRSTEPELIQVKSELPLDPLPVPTEEGNPLLKHYRGPAGDATVASEKESVM
For B1, the “stoichiometry N” value was 3.
